Results on 1 protein are retold here after patent US20060024807.

Data set [1] has as its target T1, Known PK substrate sequence PLARTLSVAGLPGK (Ca-/calmodulin-dependent PK substrate).
T1 chain: PLARTLSVAGLPGK

For data set [2], the target named is T2, Known PK substrate sequence Ac-SPGRRRRK (cdc2-kinase substrate).
T2 chain: SPGRRRRK

The target of data set [3] is T3, Known PK substrate sequence APRTPGGRR (p42/p44 MAP kinase substrate).
T3 chain: APRTPGGRR

Data set [4] deals with T4, Known PK substrate sequence SGQLIDSMANSFVGTRS (raf-1 kinase substrate).
T4 chain: SGQLIDSMANSFVGTRS

Data set [5] deals with T5, Known PK substrate sequence PKTPKKAKKL (p34 cdc-kinase substrate).
T5 chain: PKTPKKAKKL

The target of data set [6] is T6, Known PK substrate sequence KKRFSFKKSFKLSGFSFK (protein kinase C substrate).
T6 chain: KKRFSFKKSFKLSGFSFK

Data set [7] has as its target T7, Known PK substrate sequence YIYGSFK (c-src tyrosine kinase substrate).
T7 chain: YIYGSFK

The target in data set [8] is T8, Known PK substrate sequence RKISASEFDRPLR (cGMP-dependent protein kinase substrate).
T8 chain: RKISASEFDRPLR

Data set [9] deals with T9, Known PK substrate sequence EAAEAEPAEPSSPAAEAEGA (p42/p44 MAP kinase substrate).
T9 chain: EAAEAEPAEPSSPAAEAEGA

For data set [10], the target named is T10, Known PK substrate sequence KKKLPATGDYMNMSPVGD (insulin receptor tyrosine kinase substrate).
T10 chain: KKKLPATGDYMNMSPVGD

Data set [11] concerns the target T11, Known PK substrate sequence EAIYAAPFAKKK (abl tyrosine kinase substrate).
T11 chain: EAIYAAPFAKKK

The target of data set [12] is T12, Known PK substrate sequence KKRPQRATSNVFS (myosin light chain kinase substrate).
T12 chain: KKRPQRATSNVFS

The target in data set [13] is T13, Known PK substrate sequence LMECRNSPVAKT (p42/p44 MAP kinase substrate).
T13 chain: LMECRNSPVAKT

In data set [14] the target is T14, Known PK substrate sequence RRKDLHDDEEDEAMSITA (casein kinase I substrate).
T14 chain: RRKDLHDDEEDEAMSITA

The target of data set [15] is T15, Known PK substrate sequence KKALRRQETVDAL (Ca-/calmodulin-dependent PK substrate).
T15 chain: KKALRRQETVDAL

For data set [16], the target named is T16, Known PK substrate sequence KKKKEEIYFFF (csk tyrosine kinase substrate).
T16 chain: KKKKEEIYFFF

Data set [17] deals with T17, Known PK substrate sequence RRRDDDSDDD (casein kinase II substrate).
T17 chain: RRRDDDSDDD

The target in data set [18] is T18, Known PK substrate sequence LSSLRASTSKSGGQK (S6 kinase substrate).
T18 chain: LSSLRASTSKSGGQK

Data set [19] concerns the target T19, Known PK substrate sequence LRRASLG (cAMP-dependent protein kinase substrate).
T19 chain: LRRASLG

Data set [20] addresses T20, Known PK substrate sequence QKRPSQRSK (protein kinase C substrate).
T20 chain: QKRPSQRSK

B1: MLSK-1 (Murine Lymph node Stromal cell Kinase 1) (protein)
chain: MESVALLQRPSQAPSASALASESARPLADGLIKSPKPLMKKQAVKRHHHKHNLRHRYEFLETLGKGTYGKVKKARESSGRLVAIKSIRKDKIKDEQDLLHIRREIEIMSSLNHPHIIAIHEVFENSSKIVIVMEYASRGDLYDYISERPRLSERDARHFFRQIVSALHYCHQNGIVHRDLKLENILLDANGNIKIADFGLSNLYHKGKFLQTFCGSPLYASPEIVNGKPYVGPEVDSWSLGVLLYILVHGTMPFDGQDHKTLVKQISNGAYREPPKPSDACGLIRWLLMVNPTRRATLEDVASHWWVNWGYTTGVGEQEALREGGHPSGDFGRASMADWLRRSSRPLLENGAKVCSFFKQHVPGGGSTVPGLERQHSLKKSRKENDMAQNLQGDPAEDTSSRPGKSSLKLPKGILKKKSSTSSGEVQEDPQELRPVPDTPGQPVPAVSLLPRKGILKKSRQRESGYYSSPEPSESGELLDASDVFVSGDPVEQKSPQASGLLLHRKGILKLNGKFSRTALEGTTPSTFGSLDQLASSHPAARPSRPSGAVSEDSILSSESFDQLDLPERLPETPLRGCVSVDNLRGLEQPPSEGLKRWWQESLGDSCFSLTDCQEVTAAYRQALGICSKLS
For B1, the Phosphorylation by MLSK-1 (% of max.) is 10.3 % of max in [1]; 94.8 % of max in [2]; 88.6 % of max in data set [3]; 43.1 % of max in [4]; 82 % of max in data set [5]; 100 % of max in data set [6]. In addition, the Phosphorylation by MLSK-1 (% of max.) is 66.6 % of max in data set [7]; 62.2 % of max in data set [8]; 0 % of max in [9]; 33.7 % of max in [10]; 69.3 % of max in [11]; 72 % of max in [12]. Besides, the Phosphorylation by MLSK-1 (% of max.) in data set [13] was 3.8 % of max; in data set [14] it was 14.1 % of max; in [15] it was 20.9 % of max; in data set [16], 82.1 % of max; in [17], 17.6 % of max; in data set [18] it was 66.6 % of max. Besides, the Phosphorylation by MLSK-1 (% of max.) in data set [19] is 65.9 % of max; in data set [20] it was 75 % of max.
